Measured values as given in the DeepSol protein solubility set.

Experiment: soluble on expression in E. coli; label from the status in PepcDB or PDB records

With “MAIDYSKWDKIELSDDSDVEVHPNVDKKSFIKWKQQSIHEQRFKRNQDIKNLETQVDMYSHLNKRVDRILSNLPESSLTDLPAVTKFLNANFDKMEKSKGENVDPEIATYNEMVEDLFEQLAKDLDKEGKDSKSPSLIRDAILKHRAKIDSVTVEAKKKLDELYKEKNAHISSEDIHTGFDSSFMNKQKGGAKPLEATPSEALSSAAESNILNKLAKSSVPQTFIDFKDDPMKLAKETEEFGKISINEYSKSQKFLLEHLPIISEQQKDALMMKAFEYQLHGDDKMTLQVIHQSELMAYIKEIYDMKKIPYLNPMELSNVINMFFEKVIFNKDKPMGKESFLRSVQEKFLHIQKRSKILQQEEMDESNAEGVETIQLKSLDDSTELEVNLPDFNSKDPEEMKKVKVFKTLIPEKMQEAIMTKNLDNINKVFEDIPIEEAEKLLEVFNDIDIIGIKAILENEKDFQSLKDQYEQDHEDATMENLSLNDRDGGGDNHEEVKHTADTVD” the “soluble on expression in E. coli” value was “soluble”.
In the case of “MSLKSKGIKNLLIDLGGVLINLDRERCIENFKKIGFQNIEEKFCTHQLDGIFLQQEKGLITPAEFRDGIREMMGKMVSDKQIDAAWNSFLVDIPTYKLDLLLKLREKYVVYLLSNTNDIHWKWVCKNAFPYRTFKVEDYFEKTYLSYEMKMAKPEPEIFKAVTEDAGIDPKETFFIDDSEINCKVAQELGISTYTPKAGEDWSHLFRKEGHHHHHH”, the “soluble on expression in E. coli” value is reported as “soluble”.
For “GMSAQAKNKLEALKAMTTVVADTGDIEAIKQFKPVDATTNPSLILKAAKLANYQHLIEEAIDWALQIKGNDKNSQTTLENVGDKLAVNIGCEVLTSIPGVISTEVDARLSFDTQATVAKARKLIRLYQDAGIDSDRILIKIASTWEGIQAAKILEAEGIHCNLTLLFHFAQAQACAEAGTTLISPFVGRILDWYKANSGQSEYSASEDPGVVSVTEIYNFYKSHGFKTIVMGASFRNTGEIEELAGCDRLTISPELLAQLEADTSPLEQKLFPIKETKDTPELLTEASFRWAMNNDPMAHDKLADGIRRFAADQVTLESMLSKKISQRS”, the “soluble on expression in E. coli” value was “soluble”.
With “KGYDSHKIALAQSETEMRNLSHSLAEHATHTFQGADVVLDDIVSFMKWRPHPSPVFNERLRALADNLPQLSDVAILDADGQLTYASVKPVPALDNSDRSYFRYHRANDDHTLLITGPIQSRTSGVWVFVVSRRLETTDGKFFGVVVATIESEYFSTFYKTFDLGPGGSISLLHSDGRLLIQWPSLQTGRDMANMVLFQKALPRSPDGYYLTVSPFDGLTKYLAYRRVSRYPLVVTVARTEDSVLSGWREAVRSD” the “soluble on expression in E. coli” value was “soluble”.
In the case of “MGSDKIHHHHHHMSMPSIDIEPTPRTLRTLALFDLDHTLLDVDSDYLWGEYIVKHNLVDEAQYRTANQKFYNDYIEGRLDATEYNEFVAQFLSSLPMGRLHELREDYIKSEIEPHIRPKAMEVLCQHVEEGHDVVIISATNDFVVSAIAKRFGIEDGNVLSTPLEIKDKRYTGKLTDKPNFKEGKIYHLDKWIGKQQLAGIHFNKTYAYSDSKNDIPLLEWADVAICVSPDAALHAHALSHRWAVEDWSI”, the “soluble on expression in E. coli” value is reported as “not soluble”.
In the case of “SVCKGVSGNPAKGEVFLYKHVNFQGDSWKVTGNVYDFRSVSGLNDVVSSVKVGPNTKAFIFKDDRFNGNFIRLEESSQVTDLTTRNLNDAISSMIVATFESA”, the “soluble on expression in E. coli” value is reported as “soluble”.
For “MPLQVDDVAERAFVRIVGALRSVRVTSERSQNSLSTFLPVRGRAISEWETGAIQPKLSHLIQWSWELDRRLVIVGRDGELRNDSLRQRPGESWEVFERRRLATPLRNRRQAMGMAQGELADLVGVTRDSIQRWELVRVPPRPIALIVWAQKLG”, the “soluble on expression in E. coli” value was “not soluble”.
For “MGSDKIHHHHHHMINSYLVQQIKGNFLYKPTLEQEKAVKFLADFLFSRQSDSVFLLKGYAGTGKTSLIGALVKTLDQLQQKCVLLAPTGRAAKVFSHYAQHPAYTIHKKIYRQRNFSNDLDNFSLDDNLHQHTLFIVDEASMIANDGLAGAVFGTGRLLDDLIQYVYAGTGCRLMLIGDTAQLPPVGEEESPALSADKLRGYGMEVYEAQLTEVVRQMHDSGILWNATELRRYISEENFLTLPSVRVEGFPDIRMVSGSELIEVINDCYGQAGMDETIVVCRSNKRANIYNKGIRNTILFREDELNSGDLLMVAKNNYFWTEGCKEIDFIANGDIAVVRRVRRVREAYGFRFADVVLAFPDYDGMELEVKLLLDTLHTETPALPKELNDKLFYSVLEDYADITVKRERMKKMKADPHYNALQVKYAYAVTCHKAQGGQWKRVFLDQGYMTEDMLTPDYFRWLYTAFTRATEILYLVNWPKEQTE”, the “soluble on expression in E. coli” value was “not soluble”.
For “MGSDKIHHHHHHMITENIKKEILRRIRNAEKEHNVKVLYAVESGSRAWGFESPNSDYDVRFIYAHPKDWYVSVDLEYKRDVIEYEIVDEIDINGWDIRKALQLFSKSNPAFVEWIQSSIVYVDDHSFAKGARQLLDTVYSVEKGIYHYRSMAKTNYRGYLKEEIVPIKKYFYVLRPLLSIMWLEKYQKPAPIEFVKLRTLIPTGSTIDQAISDLLERKKRSLEKEYAPAVPVLNAFIESELDRLENYQDSPQRNSSHMESLNSLFRVSIS”, the “soluble on expression in E. coli” value was “not soluble”.
In the case of “MAHHHHHHMYKLVLIRHGESTWNKENRFTGWVDVDLTEQGNREARQAGQLLKEAGYTFDIAYTSVLKRAIRTLWHVQDQMDLMYVPVVHSWRLNERHYGALSGLNKAETAAKYGDEQVLVWRRSYDTPPPALEPGDERAPYADPRYAKVPREQLPLTECLKDTVARVLPLWNESIAPAVKAGKQVLIAAHGNSLRALIKYLDGISDADIVGLNIPNGVPLVYELDESLTPIRHYYLGDQEAIAKAQAAVAQQGKSAA”, the “soluble on expression in E. coli” value is reported as “soluble”.
With “MSGRRKGCSAATASSSSSSPPSRLPPLPGHARRPRRKRCLVPEVFCTRDLADLCVRRDYEGLRRYLRRFEGSCVSLGWPSQCIYVVGGEHSPHSLTEIDLEHCQNDFFGEFRALHLIGTVSHATCRYQVFVDAYGAVFAYDAQEDCLYELASDLAGFFAKGMIRCDPVHESICARLQPNVPLVHPDHRAELCRRSRASARGRYLRSLLAFRELLACEDTAARCAYVEAHREAQLTLIWPEKHSLVLRTARDLGLSASMLRRFQRSLYTREPVMPLGEIEGAEDKTFFHRVRILCGDTGTVYAALVGQDKLVRLARDLRGFVRVGLALLIDDFRYESIGPVDRSSLYEANPELRLPFKKRRLEHHHHHH” the “soluble on expression in E. coli” value was “not soluble”.
For “MTIAVDFDGTIVEHRYPRIGEEIPFAVETLKLLQQEKHRLILWSVREGELLDEAIEWCRARGLEFYAANKDYPEEERDHQGFSRKLKADLFIDDRNVGGIPDWGIIYEMIKEKKTFADIYSQQREENTSQKKKRKWLPF”, the “soluble on expression in E. coli” value was “soluble”.
In the case of “MSYLDFNSMLNNLYTKFGDSSFENVFYLPEPKISKKSTRIDWININVFLKSVNRSIEHFINYLKNDRKISTTYQNNILIIQGKYRKEDINKMMLEYVNKFCKCPICSSYDTLLVKDGTIRKEKIICSKCKSTTFCS”, the “soluble on expression in E. coli” value is reported as “not soluble”.
For “MIKLSNITKVFQQGTRTIQALNNVSLHVPAGQIYGVIGASGAGKSTLIRCVNLLERPTEGSVQVGGQELTTLSESELTKARRQIGMIFQHFNLLSSRTVFGNVALPLELDNTPKEEIKRRVTELLDLVGLGDKHDSYPANLSGGQKQRVAIARALASNPKVLLCDEATSALDPATTRSILELLKDINRRLGLTILLITHEMDVVKRICDCVAVISNGELIEQDTVSEVFSHPKTPLAQKFIQSTLHLDIPEDYQARLKASPETDSVPMLRMEFTGQSVDAPLLSETARRFNVNNNIISAQMDYAGGVKFGIMLTEMHGTQEETQAAIAWLQDHHVKVEVLGYV”, the “soluble on expression in E. coli” value was “not soluble”.
With “MNPSMKQKQEEIKENIKNSSVPRRTLKMIQPSASGSLVGRENELSAGLSKRKHRNDHLTSTTSSPGVIVPESSENKNLGGVTQESFDLMIKENPSSQYWKEVAEKRRKALYEALKENEKLHKEIEQKDNEIARLKKENKELAEVAEHVQYMAELIERLNGEPLDNFESLDNQEFDSEEETVEDSLVEDSEIGTCAEGTVSSSTDAKPCI” the “soluble on expression in E. coli” value was “soluble”.
